This is an account of results in US20260062466A1 (WASHINGTON UNIVERSITY, published 2026).

The target in one test is CHIKV-37997 (virus) (Chikungunya virus strain 37997, UniProt Q5XXP3 326-748; Q5XXP3 810-1248). The experiment in a line: cell-based or functional assay.
Another test addresses CHIKV-LR 2006 (virus) (Chikungunya virus strain LR 2006). The experiment in a line: cell-based or functional assay.

Sequence of CHIKV-37997 (virus) (Q5XXP3 326-748 limits assumed, chain 1 of 2): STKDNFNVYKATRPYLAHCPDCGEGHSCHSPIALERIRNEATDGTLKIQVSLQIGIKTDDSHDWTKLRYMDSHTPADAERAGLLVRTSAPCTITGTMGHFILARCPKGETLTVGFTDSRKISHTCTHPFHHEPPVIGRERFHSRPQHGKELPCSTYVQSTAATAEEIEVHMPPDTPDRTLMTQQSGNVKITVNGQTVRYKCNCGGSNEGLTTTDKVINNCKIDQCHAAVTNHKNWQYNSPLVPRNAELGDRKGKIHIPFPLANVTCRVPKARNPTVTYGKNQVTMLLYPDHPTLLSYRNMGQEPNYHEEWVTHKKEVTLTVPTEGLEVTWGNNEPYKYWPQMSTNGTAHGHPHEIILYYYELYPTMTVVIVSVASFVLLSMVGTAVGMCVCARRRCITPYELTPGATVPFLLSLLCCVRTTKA
Sequence of CHIKV-37997 (virus) (Q5XXP3 810-1248 limits assumed, chain 2 of 2): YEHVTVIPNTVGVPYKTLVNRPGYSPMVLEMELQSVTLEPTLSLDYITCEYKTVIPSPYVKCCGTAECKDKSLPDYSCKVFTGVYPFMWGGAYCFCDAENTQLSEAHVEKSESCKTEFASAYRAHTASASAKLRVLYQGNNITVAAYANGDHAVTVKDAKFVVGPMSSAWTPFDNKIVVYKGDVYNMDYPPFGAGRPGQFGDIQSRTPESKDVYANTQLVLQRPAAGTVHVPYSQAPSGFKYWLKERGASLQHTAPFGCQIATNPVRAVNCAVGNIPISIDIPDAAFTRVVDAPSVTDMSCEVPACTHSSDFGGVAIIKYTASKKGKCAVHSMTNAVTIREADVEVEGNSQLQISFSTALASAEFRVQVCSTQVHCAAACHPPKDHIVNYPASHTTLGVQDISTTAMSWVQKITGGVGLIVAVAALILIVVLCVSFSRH

B1: 506.C01 (antibody, V domains shown)
VH: QVQLQESGPGLVKPSQTLSLTCTVSGGSISSDDYYWTWIRLPPGKGLEWIGYIFYTGGTYYNPSLKSRVTISLDRSKNQFSLKLSSVTAADTAVYFCARAPETYCSTTNCYKGYFDSWGQGTLVTVSS
VL: DIQMTQSPSSVSASVGDRVTITCRASQGISSWLGWYQQKPGKAPKLLIYAASSLQSGVPSRFSGSGSGTDFTLTISSLQPEDFATYYCQQANSFPRTFGQGTKVEIK
As to B1, the “FRNT neutralisation, 37997 EC50” value in the test with CHIKV-37997 (virus) was 0.002 µg/mL. Further, the “FRNT neutralisation, LR 2006 EC50” value in the test with CHIKV-LR 2006 (virus) was 0.008 µg/mL.

B2: 516.A10 (antibody, V domains shown)
VH: QVQMVESGGGVVQPGRSLRLSCAASGFTFSSYPIHWVRQVPGKGLEWVAVISYDGSNKYYADSVKGRFTISRDNSKNTLYLQMNSLRPEDTAVYFCARGRGDFELNSFDYWGQGTLVTVSS
VL: EIVLTQSPGTLSLSPGERATLSCRASQSVSSSYLGWYQQKLGQAPRLLIYGASSRATGIPDRFSGSGSGTDFTLTISRLEPEDFAVYYCQQYGSTPFTFGPGTKVDIK
Take B2: in the test with CHIKV-37997 (virus), the “FRNT neutralisation, 37997 EC50” value amounted to 0.128 µg/mL. For the same molecule, in the test with CHIKV-LR 2006 (virus), the “FRNT neutralisation, LR 2006 EC50” value was found to be 0.004 µg/mL.

B3: 506.A08 (antibody, V domains shown)
VH: EEQLVESGGGLVQPGGSLRLSCAASGFTFSSYSMNWVRQAPGKGLEWVSYISSSSSTIHYADSVKGRFTISRDNAKNSLYLQMNSLRAEDTAVYYCAREGNSGYEPLDYWGQGTLVTVSS
VL: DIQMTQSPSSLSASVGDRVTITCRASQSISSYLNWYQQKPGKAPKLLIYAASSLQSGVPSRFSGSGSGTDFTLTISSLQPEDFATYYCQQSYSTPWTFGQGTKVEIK
With B3, the “FRNT neutralisation, 37997 EC50” value with CHIKV-37997 (virus) worked out at 0.072 µg/mL. In the test with CHIKV-LR 2006 (virus), the “FRNT neutralisation, LR 2006 EC50” value worked out at 0.11 µg/mL.
